According to patent US20200407442A1 (WUXI BIOLOGICS IRELAND, published 2020):

T1: human LAG-3-ECD.D12.mFc mutant P72A (human, UniProt P18627 37-252)
T1 construct: Alanine scanning mutant; construct limits as for m26
T1 chain: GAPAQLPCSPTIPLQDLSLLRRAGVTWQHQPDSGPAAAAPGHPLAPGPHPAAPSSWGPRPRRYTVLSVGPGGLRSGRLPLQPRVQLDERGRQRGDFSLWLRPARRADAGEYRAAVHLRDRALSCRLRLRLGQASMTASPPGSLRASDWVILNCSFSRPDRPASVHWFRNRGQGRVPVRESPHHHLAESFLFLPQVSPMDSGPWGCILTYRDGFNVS

T2: human LAG-3-ECD.D12.mFc mutant W92A (human, UniProt P18627 37-252)
T2 construct: Alanine scanning mutant; construct limits as for m26
T2 chain: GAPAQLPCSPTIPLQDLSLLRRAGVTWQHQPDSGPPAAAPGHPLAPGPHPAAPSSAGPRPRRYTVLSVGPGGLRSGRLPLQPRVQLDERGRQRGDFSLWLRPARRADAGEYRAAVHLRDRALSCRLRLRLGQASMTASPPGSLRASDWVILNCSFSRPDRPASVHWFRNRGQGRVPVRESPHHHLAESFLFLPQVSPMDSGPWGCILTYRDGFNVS

T3: human LAG-3-ECD.D12.mFc mutant A40G (human, UniProt P18627 37-252)
T3 construct: construct limits as for m26
T3 chain: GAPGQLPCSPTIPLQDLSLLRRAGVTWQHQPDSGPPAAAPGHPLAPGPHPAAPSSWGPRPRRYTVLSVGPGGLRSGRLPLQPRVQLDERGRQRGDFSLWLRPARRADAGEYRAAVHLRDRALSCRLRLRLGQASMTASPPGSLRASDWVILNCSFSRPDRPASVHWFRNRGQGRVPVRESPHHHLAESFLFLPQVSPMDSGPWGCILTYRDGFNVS

T4: human LAG-3-ECD.D12.mFc mutant P43A (human, UniProt P18627 37-252)
T4 construct: Alanine scanning mutant; construct limits as for m26
T4 chain: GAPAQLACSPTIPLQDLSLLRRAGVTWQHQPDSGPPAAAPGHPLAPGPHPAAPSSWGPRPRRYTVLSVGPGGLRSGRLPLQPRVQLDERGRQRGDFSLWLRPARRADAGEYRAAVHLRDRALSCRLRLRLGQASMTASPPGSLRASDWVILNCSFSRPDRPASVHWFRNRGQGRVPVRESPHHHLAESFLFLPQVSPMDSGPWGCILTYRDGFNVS

T5: human LAG-3-ECD.D12.mFc mutant T62A (human, UniProt P18627 37-252)
T5 construct: Alanine scanning mutant; construct limits as for m26
T5 chain: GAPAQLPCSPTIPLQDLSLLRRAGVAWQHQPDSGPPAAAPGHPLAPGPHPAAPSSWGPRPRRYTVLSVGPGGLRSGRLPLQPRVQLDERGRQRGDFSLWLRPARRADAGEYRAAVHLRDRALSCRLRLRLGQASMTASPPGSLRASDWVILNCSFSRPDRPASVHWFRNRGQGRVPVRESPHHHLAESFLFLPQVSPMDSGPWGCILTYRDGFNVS

T6: human LAG-3-ECD.D12.mFc mutant D131A (human, UniProt P18627 37-252)
T6 construct: Alanine scanning mutant; construct limits as for m26
T6 chain: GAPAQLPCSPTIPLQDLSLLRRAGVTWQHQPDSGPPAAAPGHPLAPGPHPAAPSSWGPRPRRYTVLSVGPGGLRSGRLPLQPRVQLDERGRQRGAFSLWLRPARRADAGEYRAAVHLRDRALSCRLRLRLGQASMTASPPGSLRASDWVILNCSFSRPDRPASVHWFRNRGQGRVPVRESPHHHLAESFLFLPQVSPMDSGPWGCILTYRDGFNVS

T7: human LAG-3-ECD.D12.mFc mutant P138A (human, UniProt P18627 37-252)
T7 construct: Alanine scanning mutant; construct limits as for m26
T7 chain: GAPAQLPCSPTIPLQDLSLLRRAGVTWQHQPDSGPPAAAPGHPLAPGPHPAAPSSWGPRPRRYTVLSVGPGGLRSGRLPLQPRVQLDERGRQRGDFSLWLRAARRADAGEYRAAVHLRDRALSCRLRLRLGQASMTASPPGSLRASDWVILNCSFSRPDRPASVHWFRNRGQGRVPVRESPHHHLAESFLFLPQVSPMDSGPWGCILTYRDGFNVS

T8: human LAG-3-ECD.D12.mFc mutant D155A (human, UniProt P18627 37-252)
T8 construct: Alanine scanning mutant; construct limits as for m26
T8 chain: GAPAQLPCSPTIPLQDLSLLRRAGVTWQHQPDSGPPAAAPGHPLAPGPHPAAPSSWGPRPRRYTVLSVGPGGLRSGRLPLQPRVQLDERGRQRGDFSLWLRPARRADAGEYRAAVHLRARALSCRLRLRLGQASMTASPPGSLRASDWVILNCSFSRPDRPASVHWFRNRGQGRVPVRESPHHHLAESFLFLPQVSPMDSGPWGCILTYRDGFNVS


Columns and labels:
Test in all cases: ELISA, antibody coated, LAG-3 D12.mFc mutant in supernatant, normalised to control mutants
[1] = target: T1, human LAG-3-ECD.D12.mFc mutant P72A
Summary of the method: (§1)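 Antibody 1.53.3-uAb-IgG4k or 3.40.19-uAb-hIgG4L coated at 2 μg/mL, then exposed to supernatant containing quantified LAG-3 D12.mFc mutants. Detection with HRP anti-mFc (1:5000). Absorbance normalized to mean of control mutants; binding fold change <0.75 set as epitope cutoff.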

[2] = target: T2, human LAG-3-ECD.D12.mFc mutant W92A
Summary of the method: as §1

[3] = target: T3, human LAG-3-ECD.D12.mFc mutant A40G
Summary of the method: as §1

[4] = target: T4, human LAG-3-ECD.D12.mFc mutant P43A
Summary of the method: as §1

[5] = target: T5, human LAG-3-ECD.D12.mFc mutant T62A
Summary of the method: as §1

[6] = target: T6, human LAG-3-ECD.D12.mFc mutant D131A
Summary of the method: as §1

[7] = target: T7, human LAG-3-ECD.D12.mFc mutant P138A
Summary of the method: as §1

[8] = target: T8, human LAG-3-ECD.D12.mFc mutant D155A
Summary of the method: as §1

Row | Fold Change [1] | Fold Change [2] | Fold Change [3] | Fold Change [4] | Fold Change [5] | Fold Change [6] | Fold Change [7] | Fold Change [8] | Binder
1 | 0.743 | 0.554 |  |  |  |  |  |  | 1.53.3-uAb-IgG4k (antibody, V domains shown, Fully human antibody from OMT rats; IgG4 kappa by its name) VH: QVQLQQWGAGLLKPSETLSLTCGVYGGSFSGYYWSWIRQPPGMGLEWIGEINHRGNTNYNPSLKSRVTISEDTSKNQFSLRLSSVTAADTAVYFCTRGEDYSDYDYYGDFWGQGTLVTVSS VL: EIVLTQSPATLSLSQGERATLSCRASQSISSYLAWYQQKPGQAPRLLIYAASNRATGIPARFSGSGSGTDFTLTISSLEPEDFAIYYCQQRSNWPLTFGGGTKVEIK
2 |  |  | 0.608 | 0.494 | 0.727 | 0.045 | 0.106 | 0.701 | 3.40.19-uAb-IgG4L (antibody, V domains shown, Fully human antibody from OMT rats; IgG4 lambda by its name; also called 3.40.19-uAb-hIgG4L) VH: QLQLQESGPGLVKPSETLSLTCTVSGDSISSTSYYWGWIRQPPGKGLEWIGSFYYSGSTYYNPSLKSRVTISVDTSKNQFSLKLNSVTAADTAVYYCARMQLWSYDVDVWGQGTTVTVSS VL: QSALTQPASVSGSPGQSITISCTGTSSDVGGYDYVAWYQQHPGKVPKLMIYDVSERPSGVSNRFSGSKSGNTASLTISGLQAEDEADYYCSSYTSTTTLVVFGGGTKLSVL
